Results published in patent US20200199204A1 (UNITED STATES OF AMERICA AS REPRESENTED BY THE SECRETARY …, published 2020).

What was measured:
Test in all cases: cell-based or functional assay
HIV-1 Env of KER2018.11 = HIV-1 Env of KER2018.11 (HIV-1)
HIV-1 Env of TH976.17 = HIV-1 Env of TH976.17 (HIV-1)
HIV-1 Env of DU172.17 = HIV-1 Env of DU172.17 (HIV-1)
HIV-1 Env of RHPA.7 = HIV-1 Env of RHPA.7 (HIV-1)
HIV-1 Env of MB201 = HIV-1 Env of MB201 (HIV-1)
HIV-1 Env of DU156.12 = HIV-1 Env of DU156.12 (HIV-1)
HIV-1 Env of CAP256.PI = HIV-1 Env of CAP256.PI (HIV-1)
HIV-1 Env of 6535.3 = HIV-1 Env of 6535.3 (HIV-1)
HIV-1 Env of ZM53.12 = HIV-1 Env of ZM53.12 (HIV-1)
HIV-1 Env of AC10.29 = HIV-1 Env of AC10.29 (HIV-1)
HIV-1 Env of 6405.v4.c34 = HIV-1 Env of 6405.v4.c34 (HIV-1)
HIV-1 Env of ZM249.1 = HIV-1 Env of ZM249.1 (HIV-1)
HIV-1 Env of CAP45.G3 = HIV-1 Env of CAP45.G3 (HIV-1)
HIV-1 Env of TRJO.58 = HIV-1 Env of TRJO.58 (HIV-1)
HIV-1 Env of CAP256.SU = HIV-1 Env of CAP256.SU (HIV-1)
HIV-1 Env of CM244.ec1 = HIV-1 Env of CM244.ec1 (HIV-1)
HIV-1 Env of Q168.a2 = HIV-1 Env of Q168.a2 (HIV-1)
HIV-1 Env of ZM135.10a = HIV-1 Env of ZM135.10a (HIV-1)
HIV-1 Env of Q259.d2.17 = HIV-1 Env of Q259.d2.17 (HIV-1)
HIV-1 Env of CAP210.E8 = HIV-1 Env of CAP210.E8 (HIV-1)
HIV-1 Env of KER2008.12 = HIV-1 Env of KER2008.12 (HIV-1)
HIV-1 Env of THRO.18 = HIV-1 Env of THRO.18 (HIV-1)
HIV-1 Env of UG037.8 = HIV-1 Env of UG037.8 (HIV-1)
HIV-1 Env of WITO.33 = HIV-1 Env of WITO.33 (HIV-1)
HIV-1 Env of MB539.2B7 = HIV-1 Env of MB539.2B7 (HIV-1)
HIV-1 Env of CAAN.A2 = HIV-1 Env of CAAN.A2 (HIV-1)
HIV-1 Env of 96ZM651.02 = HIV-1 Env of 96ZM651.02 (HIV-1)
HIV-1 Env of BG505.w6m = HIV-1 Env of BG505.w6m (HIV-1)
HIV-1 Env of REJO.67 = HIV-1 Env of REJO.67 (HIV-1)
HIV-1 Env of Q23.17 = HIV-1 Env of Q23.17 (HIV-1)
HIV-1 Env of TRO.11 = HIV-1 Env of TRO.11 (HIV-1)
HIV-1 Env of QH0692.42 = HIV-1 Env of QH0692.42 (HIV-1)
HIV-1 Env of ZM109.4 = HIV-1 Env of ZM109.4 (HIV-1)
HIV-1 Env of PVO.04 = HIV-1 Env of PVO.04 (HIV-1)
HIV-1 Env of Q461.e2 = HIV-1 Env of Q461.e2 (HIV-1)
HIV-1 Env of 3016.V5.c36 = HIV-1 Env of 3016.V5.c36 (HIV-1)
HIV-1 Env of DU422.01 = HIV-1 Env of DU422.01 (HIV-1)
HIV-1 Env of CAP244.D3 = HIV-1 Env of CAP244.D3 (HIV-1)
HIV-1 Env of RW020.2 = HIV-1 Env of RW020.2 (HIV-1)
HIV-1 Env of SC422.8 = HIV-1 Env of SC422.8 (HIV-1)
HIV-1 Env of ZM233.6 = HIV-1 Env of ZM233.6 (HIV-1)
HIV-1 Env of Q842.d12 = HIV-1 Env of Q842.d12 (HIV-1)
HIV-1 Env of C1080.c3 = HIV-1 Env of C1080.c3 (HIV-1)
HIV-1 Env of CNE3 = HIV-1 Env of CNE3 (HIV-1)
HIV-1 Env of Q769.d22 = HIV-1 Env of Q769.d22 (HIV-1)
HIV-1 Env of ZM197.7 = HIV-1 Env of ZM197.7 (HIV-1)
HIV-1 Env of ZM214.15 = HIV-1 Env of ZM214.15 (HIV-1)
HIV-1 Env of 0260.v5.c36 = HIV-1 Env of 0260.v5.c36 (HIV-1)

B1: CAP256-VRC26.27 (antibody, V domains shown)
VH: QKQLVESGGGVVQPGRSLTLSCAASQFPFSHYGMHWVRQAPGKGLEWVASITNDGTKKYHGESVWDRFRISRDNSKNTLFLQMNSLRAEDTALYFCVRDQREDECEEWWSDYYDFGKELPCRKFRGLGLAGIFDIWGHGTMVIVSS
VL: QSVLTQPPSVSAAPGQKVSISCSGNNSNIGNNFISWFQQFPGTAPKPLIYETYRRHSGIPDRFSGSKSGTSATLAITGLQTGDEADYYCATWGVRQGVGALFGTGTKVTVLG
HIV-1 Env of KER2018.11
  IC50 (neutralization, TZM-bl): 0.001 µg/mL
HIV-1 Env of TH976.17
  IC50 (neutralization, TZM-bl): > 50 µg/mL
HIV-1 Env of DU172.17
  IC50 (neutralization, TZM-bl): 4.36 µg/mL
HIV-1 Env of RHPA.7
  IC50 (neutralization, TZM-bl): > 50 µg/mL
HIV-1 Env of MB201
  IC50 (neutralization, TZM-bl): > 50 µg/mL
HIV-1 Env of DU156.12
  IC50 (neutralization, TZM-bl): 0.006 µg/mL
HIV-1 Env of CAP256.PI
  IC50 (neutralization, TZM-bl): > 50 µg/mL
HIV-1 Env of 6535.3
  IC50 (neutralization, TZM-bl): > 50 µg/mL
HIV-1 Env of ZM53.12
  IC50 (neutralization, TZM-bl): < 0.0006 µg/mL
HIV-1 Env of AC10.29
  IC50 (neutralization, TZM-bl): > 50 µg/mL
HIV-1 Env of 6405.v4.c34
  IC50 (neutralization, TZM-bl): > 50 µg/mL
HIV-1 Env of ZM249.1
  IC50 (neutralization, TZM-bl): 0.004 µg/mL
HIV-1 Env of CAP45.G3
  IC50 (neutralization, TZM-bl): 0.025 µg/mL
HIV-1 Env of TRJO.58
  IC50 (neutralization, TZM-bl): > 50 µg/mL
HIV-1 Env of CAP256.SU
  IC50 (neutralization, TZM-bl): < 0.0006 µg/mL
HIV-1 Env of CM244.ec1
  IC50 (neutralization, TZM-bl): 0.056 µg/mL
HIV-1 Env of Q168.a2
  IC50 (neutralization, TZM-bl): 0.003 µg/mL
HIV-1 Env of ZM135.10a
  IC50 (neutralization, TZM-bl): > 50 µg/mL
HIV-1 Env of Q259.d2.17
  IC50 (neutralization, TZM-bl): 0.005 µg/mL
HIV-1 Env of CAP210.E8
  IC50 (neutralization, TZM-bl): 0.002 µg/mL
HIV-1 Env of KER2008.12
  IC50 (neutralization, TZM-bl): 11.3 µg/mL
HIV-1 Env of THRO.18
  IC50 (neutralization, TZM-bl): 1.23 µg/mL
HIV-1 Env of UG037.8
  IC50 (neutralization, TZM-bl): > 50 µg/mL
HIV-1 Env of WITO.33
  IC50 (neutralization, TZM-bl): > 50 µg/mL
HIV-1 Env of MB539.2B7
  IC50 (neutralization, TZM-bl): 1.15 µg/mL
HIV-1 Env of CAAN.A2
  IC50 (neutralization, TZM-bl): > 50 µg/mL
HIV-1 Env of 96ZM651.02
  IC50 (neutralization, TZM-bl): 0.047 µg/mL
HIV-1 Env of BG505.w6m
  IC50 (neutralization, TZM-bl): 0.102 µg/mL
HIV-1 Env of REJO.67
  IC50 (neutralization, TZM-bl): > 50 µg/mL
HIV-1 Env of Q23.17
  IC50 (neutralization, TZM-bl): > 50 µg/mL
HIV-1 Env of TRO.11
  IC50 (neutralization, TZM-bl): > 50 µg/mL
HIV-1 Env of QH0692.42
  IC50 (neutralization, TZM-bl): > 50 µg/mL
HIV-1 Env of ZM109.4
  IC50 (neutralization, TZM-bl): 0.027 µg/mL
HIV-1 Env of PVO.04
  IC50 (neutralization, TZM-bl): 0.371 µg/mL
HIV-1 Env of Q461.e2
  IC50 (neutralization, TZM-bl): 0.014 µg/mL
HIV-1 Env of 3016.V5.c36
  IC50 (neutralization, TZM-bl): 0.006 µg/mL
HIV-1 Env of DU422.01
  IC50 (neutralization, TZM-bl): 0.015 µg/mL
HIV-1 Env of CAP244.D3
  IC50 (neutralization, TZM-bl): > 50 µg/mL
HIV-1 Env of RW020.2
  IC50 (neutralization, TZM-bl): > 50 µg/mL
HIV-1 Env of SC422.8
  IC50 (neutralization, TZM-bl): 4.86 µg/mL
HIV-1 Env of ZM233.6
  IC50 (neutralization, TZM-bl): < 0.0006 µg/mL
HIV-1 Env of Q842.d12
  IC50 (neutralization, TZM-bl): 10.6 µg/mL
HIV-1 Env of C1080.c3
  IC50 (neutralization, TZM-bl): 0.149 µg/mL
HIV-1 Env of CNE3
  IC50 (neutralization, TZM-bl): > 50 µg/mL
HIV-1 Env of Q769.d22
  IC50 (neutralization, TZM-bl): > 50 µg/mL
HIV-1 Env of ZM197.7
  IC50 (neutralization, TZM-bl): 0.004 µg/mL
HIV-1 Env of ZM214.15
  IC50 (neutralization, TZM-bl): 3.86 µg/mL
HIV-1 Env of 0260.v5.c36
  IC50 (neutralization, TZM-bl): 2.1 µg/mL
